Results on six molecules are retold here after article PMC3281051, “Probing High Affinity Sequences of DNA Aptamer against VEGF165”.

The target in series [1] is VEGF on HT-29 cells (human) (UniProt P15692). Description: flow cytometry. As to conditions: hypoxia 1% O2, 37 C, scrambled signal subtracted, SPR (BIAcore 2000, CM5): PBS + 0.005% Tween-20, 25 C, 30 ul/min, aptamer 0.2-100 nM, 1:1 Langmuir fit, cells: culture medium, 2 h.
The next series has as its target VEGF165 (human, UniProt P15692-4 27-191). Description: SPR; SPR (BIAcore 2000, CM5): PBS + 0.005% Tween-20, 25 C, 30 ul/min, aptamer 0.2-100 nM, 1:1 Langmuir fit; cells: culture medium, 37 C, 2 h, 1% O2. As to conditions: protein: commercial, tags: carrier-free, chain copies: 2. (SPR reads the build-up and loss of mass on a sensor chip optically.)
A further series has as its target VEGF121 (human, UniProt P15692-9 27-147). The description is as above. Conditions: protein: commercial; tags: carrier-free; chain copies: 2; hairpin.
The target of a further series is VEGF165, human (Homo sapiens (Human), UniProt P15692 27-191). The series is described as follows: SPR; PBS, 0.005% Tween-20, 25 C; protein amine-coupled on CM5. Conditions: chain copies: 2.
Chain of VEGF165, human (P15692 other isoform, or with tags, fused parts or gaps): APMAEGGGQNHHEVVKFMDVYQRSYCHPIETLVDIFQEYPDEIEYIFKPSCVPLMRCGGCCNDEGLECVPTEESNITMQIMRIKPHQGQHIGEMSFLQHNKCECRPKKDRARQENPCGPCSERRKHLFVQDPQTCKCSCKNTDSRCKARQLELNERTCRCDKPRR

Chain of VEGF on HT-29 cells (human) (P15692 whole entry): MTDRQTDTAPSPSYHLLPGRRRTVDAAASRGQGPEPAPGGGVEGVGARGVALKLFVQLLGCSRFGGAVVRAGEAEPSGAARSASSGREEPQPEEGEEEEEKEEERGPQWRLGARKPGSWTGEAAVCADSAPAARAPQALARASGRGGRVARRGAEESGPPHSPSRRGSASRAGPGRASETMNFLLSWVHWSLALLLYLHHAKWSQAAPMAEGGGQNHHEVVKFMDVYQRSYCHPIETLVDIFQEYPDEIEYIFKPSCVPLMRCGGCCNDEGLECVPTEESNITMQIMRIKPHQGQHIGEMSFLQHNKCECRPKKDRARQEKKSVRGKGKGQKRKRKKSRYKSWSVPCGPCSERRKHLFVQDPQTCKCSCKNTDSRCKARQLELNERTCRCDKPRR
Chain of VEGF121 (P15692 other isoform, or with tags, fused parts or gaps): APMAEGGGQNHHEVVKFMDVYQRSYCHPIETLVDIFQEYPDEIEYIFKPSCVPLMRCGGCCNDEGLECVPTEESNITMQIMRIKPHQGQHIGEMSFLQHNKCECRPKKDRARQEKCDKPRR

As to “CAATTGGGCCCGTCCGTATGGTGGGT [SL2-B Texas Red]”, the equilibrium dissociation constant (Kd) in series [1] came to 1 nM. In the case of GCCCGTCCGTATGGTGGGT (ssDNA) [SL2-A], the Kd with VEGF165 (hairpin) turned out to be 10 ± 1.1 nM. For the molecule CAATTGGGCCCGTCCGTATGGTGGGT (ssDNA) [SL2-B], the results for the Kd with VEGF165 (hairpin) and with VEGF121 were 0.5 ± 0.32 nM and 10.2 ± 1.89 µM, respectively.

CCCGTCCGTATGGTGGG (ssDNA) [SL2]: the Kd with VEGF165 (hairpin) worked out at 49 ± 2.4 nM.

B1: VEa5 (ssDNA)
DNA: ATACCAGTCTATTCAATTGGGCCCGTCCGTATGGTGGGTGTGCTGGCCAGATAGTATGTGCAATCA
For the molecule B1, the Kd was 120 ± 1.8 nM with VEGF165 (3 stem-loops (mfold)) and 120 ± 1.8 nM with VEGF165, human. For ATACCAGTCTATTCAATTGG (ssDNA) [SL1], in the series with VEGF165 (hairpin), the binding result is recorded as “no binding”.

Usually Kd stands for the free concentration of one partner at which half of the binding sites on the other are occupied at equilibrium, for simple one-to-one binding.
